Experimental findings from the domain aggregation screens of Martell et al. (2025) are described below.

This data set can be described thus: soluble fraction after stress (log2 fold change); higher = more stays soluble; pooled small domains, quantitative proteomics. The following applies: stress: pH 4. The method in brief: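 Pooled custom libraries of small protein domains were stressed at pH 4 and then measured by high-throughput quantitative proteomics. The fold change in the amount of each domain that stays soluble after the acid stress serves as a measure of aggregation propensity. Fold changes are given on a log2 scale, and higher values mean more of the domain stayed soluble.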

Turning to “HMSRYAFEGNVVRLNQKDFDSWKALFTNIDLVSELTRLDIEFTHDKPKNWFSTASAKLNYQNKNAY”, the “soluble fraction (log2)” value was -0.903. Then “HMSRYLLPYAFARTQQVLLEEKSGELTLWMHSGSNLGGISEVTRKYAVQHVTHEPMDALLNRISSAYAN”, with -2.03.

For “HMSSAVKRALAELPENWRMIVYYRVVEGLSYAEIAKVLDIPDGSVMSGLHRGKKMLRGLLLEYAQQEGYD”, the “soluble fraction (log2)” value was -0.74. Regarding “HMSSDDEAFKRELVGLIPHLRAFARTLTGDPTAADDLAQDAMMKAWDARASYQMGTNMKAWTFMILRNQFY”, the “soluble fraction (log2)” value is -1.65. Regarding “HMSSDKVWSFEASGKQLQASYVAFENETVYLRASEDGSLLQFPLTDFGMKDQLVVLELYELSAKINRSN”, the “soluble fraction (log2)” value is -0.779.

As to “HMSSDLSNVVKIIDTLKHKKGALLPILHQIQREIGYIPLKTIDTIAKKLQQTPAEIHGVISFYHQFRTS”, the “soluble fraction (log2)” value is 0.22.

Regarding “HMSSEASALRGWLQTSQYQGSVTLFANALNVPLKTVEDWVYGRSKPSLQHWSQLYEATGLPEYQQ”, the “soluble fraction (log2)” value came to 0.0888. As to “HMSSFRDISGTVYVKASAANLRSEPNTSSLIVDTLYYGASLQRISTNDIWTKVKTGNGQIGFMDNSLFQT”, the “soluble fraction (log2)” value is at least 0.43. As for “HMSSGSLLTEREIEILAEMAKGLTNKAIGEKLFISVATVKTHILNIYRKLEVSSRVTAVNKAKQMRL”, the “soluble fraction (log2)” value is -0.11.

For “HMSSGTAYATDAVNVRSGPGTSYTVLGYLSRGEKVTITGTVSNGWTQIQLPGNRLGYVSSAYLSASYPS”, the “soluble fraction (log2)” value was -0.115. Consider “HMSSHNIALDQDVVVTQLKGKVYLVAADGSQKQLAEGDILPKDAVLITPEGASFKGGNQTFTLS”, for which the “soluble fraction (log2)” value was -0.235. For the sequence “HMSSIFTRIIAGEIPSYKVAEDENYYAFLDINPLTKGHTLVVPKMEVDYIFDLDDKTLAGMMLFAKKG”, the “soluble fraction (log2)” value is -0.455. With “HMSSKIKYSEFITMLDKGEVESVVLKSDTLTITLKHGTGVAAQTKTTTLMEDLSELTKRLEKAGIKDFDK”, the “soluble fraction (log2)” value is 0.22. On to “HMSSLDTLTARETQILAEMAQGKNNAAIAAAVSVSERAVEKHTNSIFAKLGLSEEKDVNRRVMAVLLFLGR”, for which the “soluble fraction (log2)” value was -1.5. Take “HMSSLEQVYPNPVSSILKLNSFIKNYKILNATGHEVLKGSGNTINVGKLPSGSYFLITSENYSIKFIK”: the “soluble fraction (log2)” value was 0.119. Regarding “HMSSLSGVRRTLLDSLGMPPDASDEELADRREELRGSLDTAPQARRKWIEQQLARIDAITALDASG”, the “soluble fraction (log2)” value was -0.0243. Take “HMSSPEAAEVQRLLKDGQHVQALKIIDESLARNPKDPQMRFRRGVALSMLDRKNEALAVFQKLVED”: the “soluble fraction (log2)” value was -0.0849. On to “HMSSPRAIYSAIQKAVGEDMILYREDVQIILDKLDADLLVDDILEKMELDGTLVRQRDGTWLLL”, for which the “soluble fraction (log2)” value was -1.01.

As to “HMSSQVFLGQKNSIAKYDLNENKPIWTKEIKGTPLILSTWKDMLLIQIQTWVSYTHMLVKQENGQTVWE”, the “soluble fraction (log2)” value was determined as 0.282. For the sequence “HMSSRLEIEITSKIDDLSHTWRAVGAKQPKGNIKSSLLPSGVKVGETFRVEADFLLDGIEIVSVLPP”, the “soluble fraction (log2)” value was -1.52. With “HMSSSLDQLTVREREILAQVSRGLSNKAIARELGISHDTVKLHVRHILSKLGFSSRVEAAVFAIEHRIG”, the “soluble fraction (log2)” value is -0.481. With “HMSSSMDAIAEIIRSIPRGDHLTAPEVYELAKQRGLKLSLSTVYRTLNKLKVVGDVITVSGDRGLRYESV”, the “soluble fraction (log2)” value worked out at 0.215. Take “HMSSTPEPPQAVLDLVNLREQARAGKDWTQSDAFRQQIAALGWTVKDTKDGPVVSLSPTTTE”: the “soluble fraction (log2)” value stood at 0.105.

In the case of “HMSSTSTMTVAEATIGRKVKHDKFGEGTIITVADVNGDKKLTIAFNQQGVKMLMLSMAKLEL”, the “soluble fraction (log2)” value is -1.05. The figure for “HMSSVEVWINGKSSGLTSDNRAQILQQLPAESIERIEVIDNPSAKFSAEGSAGIINIVLKKD” is -0.177. Then “HMSSVRDNGDLELVPGDRIRHDDYGEGRVTAVTGVGSKRIAHAVFDSVGERKLLIKLSPIEKI”, with 0.235; and “HMSSWMTKDGKIKPISKWAGVPMTSQQQADYAAGKVVELTNIPDKQGQLNTVYLKFNPEKQRPTTSLNDPR”, with 0.22.

As to “HMSSYETVTLNGQRYFKYKVKSGEGLYAISRMFSTPIAEIIRHNPSSNAGLKNGQELLIPVN”, the “soluble fraction (log2)” value is -0.0689. With “HMSSYMQMQLERLESLLQKNDLTDSDKYDIRQLVEDLDKVPESVSPNLVGAYMTIKNRYASVLKTVL”, the “soluble fraction (log2)” value is -0.835. As to “HMSTANISIEQAKEIALNHANLTSNQVIFSRTELDYDNGIQKYEVEFYYNNREYSYEINANTGDILGYEQ”, the “soluble fraction (log2)” value is -0.417. Turning to “HMSTANIVVPDVKGKTFEEAKKAIEAEGLTAKAEGDESGVVQKTSPSYGVSVESGSEVTLTLVKSDD”, the “soluble fraction (log2)” value stood at 0.0493. For the sequence “HMSTDNINYKNILIASLLIHAAKIDENYTENEKNIIKKALIELDEIDSKKADEIMILAEKKE”, the “soluble fraction (log2)” value was -0.271. Turning to “HMSTGYEMVREVANQGSFSKAANSLGVSGPAVSKQVKSLEERLGLVLFHRTTRAVSLTQAGRQLVDVLN”, the “soluble fraction (log2)” value was -0.036. For the sequence “HMSTIKEKIIQYLDFKGISKYDFYQKTGVSNGVLSQKSGMSEDNIMRFLSYYDDINTDWLFYGKGEMIKT”, the “soluble fraction (log2)” value was -1.37.

“HMSTKLLEVNIFDDSKWVNKTIMDSDIPEDILIVMIKRGDEVIVPKGSTIINKGDILVLSANNFDNLLN”: the “soluble fraction (log2)” value was -1.97. “HMSTMTEQEAFGLWERINDFIARTGNEPNRNSNDAHEVRMAEALNFIRIKVAEQRNSQSNSEAQNN”: the “soluble fraction (log2)” value was -1.39.

In the case of “HMSTNDIFISGDKLVLKNTTGQMDVFDMAGRKVLSSTNNVSEMNVSSLPKGVYVVSASIGGSKMKAKVYK”, the “soluble fraction (log2)” value was determined as 0.0276. For “HMSTQGRRIEILRHLTQTKKKADVNFVELGRTFGTSDTTIRKDLDWLIKNEYWENHGEWKPTQAGLNMI”, the “soluble fraction (log2)” value was -0.00179. Then “HMSTRKAFVNGDGVRLRSGPGTNHSIRASLTKGQTVFVTGTKDGWASVSVQGGASGWVSADLLKYE”, with 0.237; and “HMSTRYVRTPAGQAEIQARVFKLSRPVRNLLLVINDSRSIDDWLVQVHGITADDVAMLRAEGLIAEVS”, with -0.214. Regarding “HMSTSEQVYTTDKVNVRREADTSSEKLGSLEKGTAISRTGTEGEWSVVNYGGVTGYIKTEFLTTEQPQ”, the “soluble fraction (log2)” value stood at 0.224. Then “HMSTSFQVQVSVLDLRIRKEPTVKGQEVGKISKGIHTITETRSADGYTWGKLESGQGWIALEFTTKLD”, with 0.0132. In the case of “HMSTSLIEFTIDRNNSIANKMIMDANIPEDILVVMIKRNGDVFVPNGSTKILPGDILVLSGNKLKY”, the “soluble fraction (log2)” value was -0.785. In the case of “HMSTTDGIERFLASGAVKGIGRTMAARIVEHFGSRTLTVMESEPERLTEVAGIGRKKAESIAASYAELS”, the “soluble fraction (log2)” value was -0.137. “HMSTTYAPYLLGETEQEAIRMARNAGLDPQVVRQSDKSEAGTVILQSHDFGFAMKRGAVILITVSSGPLQ”: the “soluble fraction (log2)” value is -0.0322. For “HMSTVTEVHYIAFKNGRIVDIKAALTGSAVTATSIKEQPKIENYNYTTSEVRDGILYHTYAPVA”, the “soluble fraction (log2)” value was found to be 0.195.

For the sequence “HMSVADNALSRQAIESRIALFIQNEDPNHPRSDADIQKELAQAGVVISRRAITKYRNHLHIPSASLRRR”, the “soluble fraction (log2)” value was -0.12. On to “HMSVAPISYSQFESYLEQGKVASVAVGQDTIAGRFTAPVDGKSQFVTTIVNPQILDRIDKSGVEITGV”, for which the “soluble fraction (log2)” value was -0.175. On to “HMSVAVKAPLQGTVMKVNVKPGDTVTKGAPVAVIEALKMENDVPAPQDGVVASVDVKSGDSVKTDQVLLTL”, for which the “soluble fraction (log2)” value was -0.00426. For the sequence “HMSVDAMDEANERKMAKTFNMIVLGGLLKIRPIVSIESVIKALRKTLPERHHHLIPMNEEAIHIGMDII”, the “soluble fraction (log2)” value is -0.288.
